Measurements as given in the supplement of paper PMC9112550, “Optimization of the antimicrobial peptide Bac7 by deep mutational scanning” (BMC Biology, 2022).

system: Escherichia coli TOP10; assay: shrunken log2 fold change of peptide-encoding DNA abundance (4.5 h post-induction vs induction); higher = less antimicrobial activity (less host growth inhibition); conditions: time post-induction: 4.5 h; library: site-saturation at positions 5, 18, 19, 20
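Further: peptides expressed intracellularly from a pBAD plasmid library in pooled LB shake-flask culture, induced with 0.3% L-arabinose, DNA abundance read by NGS, three biological replicates, DESeq2 with apeglm shrinkage.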

Row | Sequence | shrunken log2 fold change
1 | RRIRHRPPRLPRPRPRPKALPRP | 0.0359
2 | RRIRMRPPRLPRPRPRPCIFPRP | 0.0107
3 | RRIRYRPPRLPRPRPRPKCLPRP | -0.245
4 | RRIRHRPPRLPRPRPRPWPSPRP | -0.00932
5 | RRIRSRPPRLPRPRPRPYSFPRP | -0.795
6 | RRIRRRPPRLPRPRPRPSAVPRP | 0.368
7 | RRIRKRPPRLPRPRPRPWNPPRP | 0.159
8 | RRIRRRPPRLPRPRPRPLRVPRP | 0.966
9 | RRIRHRPPRLPRPRPRPHQYPRP | -0.52
10 | RRIRTRPPRLPRPRPRPAATPRP | 0.247
11 | RRIRIRPPRLPRPRPRPPYGPRP | -0.202
12 | RRIRYRPPRLPRPRPRPHDEPRP | -0.0568
13 | RRIRTRPPRLPRPRPRPCYYPRP | 0.0075
14 | RRIRQRPPRLPRPRPRPWSMPRP | -0.0469
15 | RRIRTRPPRLPRPRPRPLVYPRP | -0.917
16 | RRIRRRPPRLPRPRPRPEKKPRP | 0.0396
17 | RRIRARPPRLPRPRPRPVKAPRP | 0.0269
18 | RRIRCRPPRLPRPRPRPGRLPRP | -0.0858
19 | RRIRGRPPRLPRPRPRPMVQPRP | 0.0883
20 | RRIRCRPPRLPRPRPRPDQPPRP | 0.171
21 | RRIRERPPRLPRPRPRPEYHPRP | -0.242
22 | RRIRPRPPRLPRPRPRPVPCPRP | 0.0816
23 | RRIRSRPPRLPRPRPRPCYMPRP | -0.562
24 | RRIRVRPPRLPRPRPRPMVGPRP | 0.0148
25 | RRIRNRPPRLPRPRPRPRLKPRP | -0.00493

Row | Sequence | shrunken log2 fold change
26 | RRIRQRPPRLPRPRPRPFFWPRP | 0.314
27 | RRIRRRPPRLPRPRPRPKHKPRP | 0.339
28 | RRIRYRPPRLPRPRPRPYEEPRP | -0.0354
29 | RRIRERPPRLPRPRPRPDRLPRP | -0.147
30 | RRIRARPPRLPRPRPRPDDQPRP | 1.41
31 | RRIRVRPPRLPRPRPRPVIDPRP | 0.0104
32 | RRIRMRPPRLPRPRPRPEFNPRP | 0.301
33 | RRIRHRPPRLPRPRPRPGRCPRP | 0.127
34 | RRIRQRPPRLPRPRPRPHTVPRP | -0.484
35 | RRIRIRPPRLPRPRPRPHECPRP | -0.164
36 | RRIRPRPPRLPRPRPRPWSWPRP | 0.217
37 | RRIRPRPPRLPRPRPRPDGQPRP | 0.204
38 | RRIRQRPPRLPRPRPRPPRTPRP | 0.669
39 | RRIRLRPPRLPRPRPRPFIHPRP | -0.807
40 | RRIRPRPPRLPRPRPRPQNWPRP | 0.0202
41 | RRIRFRPPRLPRPRPRPLYFPRP | -0.72
42 | RRIRLRPPRLPRPRPRPRDRPRP | 3.43
43 | RRIRIRPPRLPRPRPRPTYKPRP | -1.09
44 | RRIRWRPPRLPRPRPRPRAKPRP | 0.788
45 | RRIRPRPPRLPRPRPRPETNPRP | 0.192
46 | RRIRERPPRLPRPRPRPIEEPRP | -0.0104
47 | RRIRHRPPRLPRPRPRPWLMPRP | -0.12
48 | RRIRSRPPRLPRPRPRPKTYPRP | -0.543
49 | RRIRWRPPRLPRPRPRPYLRPRP | -0.37
50 | RRIRARPPRLPRPRPRPKGNPRP | 0.0299

Row | Sequence | shrunken log2 fold change
51 | RRIRYRPPRLPRPRPRPQMRPRP | -0.00174
52 | RRIRGRPPRLPRPRPRPICPPRP | 0.114
53 | RRIRLRPPRLPRPRPRPKDWPRP | 0.467
54 | RRIRWRPPRLPRPRPRPDKYPRP | -0.126
55 | RRIRNRPPRLPRPRPRPVVNPRP | -0.244
56 | RRIRRRPPRLPRPRPRPRMTPRP | 0.295
57 | RRIRSRPPRLPRPRPRPGPLPRP | 0.292
58 | RRIRRRPPRLPRPRPRPIRGPRP | 0.1
59 | RRIRRRPPRLPRPRPRPSHIPRP | -0.0708
60 | RRIRTRPPRLPRPRPRPPYFPRP | 0.202
61 | RRIRIRPPRLPRPRPRPFMVPRP | -0.975
62 | RRIRNRPPRLPRPRPRPVKTPRP | -0.0264
63 | RRIRARPPRLPRPRPRPEYAPRP | 0.672
64 | RRIRSRPPRLPRPRPRPLSFPRP | -0.24
65 | RRIRNRPPRLPRPRPRPDSLPRP | 0.0321
66 | RRIRWRPPRLPRPRPRPNDYPRP | -1.02
67 | RRIRLRPPRLPRPRPRPLLYPRP | -0.326
68 | RRIRWRPPRLPRPRPRPDLDPRP | 0.311
69 | RRIRVRPPRLPRPRPRPMQDPRP | 0.0217
70 | RRIRCRPPRLPRPRPRPQRQPRP | 0.0683
71 | RRIRDRPPRLPRPRPRPIKVPRP | 0.00881
72 | RRIRQRPPRLPRPRPRPRKEPRP | -0.0194
73 | RRIRYRPPRLPRPRPRPKKEPRP | -0.00181
74 | RRIRPRPPRLPRPRPRPHEEPRP | -0.000777
75 | RRIRLRPPRLPRPRPRPWCKPRP | -0.213
